Experiment: label from the status in PepcDB records

Sequence	protein production
MAYSYTEKKRIRKDFSKLPDVMDVPYLLAIQLDSYREFLQAGATKEQFRDVGLHAAFKSVFPIISYSGNAALEYVGYRLGEPAFDVKECVLRGVTFAVPLRVKVRLIIFDRESSNKAIKDIKEQEVYMGEIPLMTENGTFIINGTERVIVSQLHRSPGVFFDHDRGKTHSSGKLLYSARIIPYRGSWLDFEFDPKDCVFVRIDRRRKLPASVLLRALGYSTEEILNAFYATNVFHIKGETLNLELVPQRLRGEVASIDIKDGSGKVIVEQGRRITARHINQLEKAGVSQLEVPFDYLIGRTIAKAIVHPATGEIIAECNTELTLDLLAKVAKAQVVRIETLYTNDIDCGPFISDTLKIDNTSNQLEALVEIYRMMRPGEPPTKEAAETLFGNLFFSAERYDLSAVGRMKFNRRIGRTEIEGPGVLSKEDIIDVLKTLVDIRNGKGIVDDIDHLGNRRVRCVGEMAENQFRVGLVRVERAVKERLSMAESEGLMPQDLINAKPVAAAIKEFFGSSQLSQFMDQNNPLSEITHKRRVSALGPGGLTRERAGFEVRDVHPTHYGRVCPIETPEGPNIGLINSLATYARTNKYGFLESPYRVVKDSLVTDEIVFLSAIEEADHVIAQASATLNEKGQLVDELVAVRHLNEFTVKAPEDVTLMDVSPKQVVSVAASLIPFLEHDDANRALMGSNMQRQAVPTLRADKPLVGTGMERNVARDSGVCVVARRGGVIDSVDASRVVVRVADDEVETGEAGVDIYNLTKYTRSNQNTCINQRPLVSKGDVVARGDILADGPSTDMGELALGQNMRVAFMPWNGFNFEDSICLSERVVQEDRFTTIHIQELTCVARDTKLGPEEITADIPNVGEAALNKLDEAGIVYVGAEVQAGDILVGKVTPKGETQLTPEEKLLRAIFGEKASDVKDTSLRVPTGTKGTVIDVQVFTRDGVERDSRALSIEKMQLDQIRKDLNEEFRIVEGATFERLRAALVGAKAEGGPALKKGTEITDDYLDGLERGQWFKLRMADDALNEQLEKAQAYISDRRQLLDDKFEDKKRKLQQGDDLAPGVLKIVKVYLAIKRRIQPGDKMAGRHGNKGVVSVIMPVEDMPHDANGTPVDIVLNPLGVPSRMNVGQILETHLGLAAKGLGEKINRMLEEQRKVAELRKFLHEIYNEIGGREENLDELGDNEILALAKNLRGGVPMATPVFDGAKEREIKAMLKLADLPESGQMRLFDGRTGNQFERPTTVGYMYMLKLNHLVDDKMHARSTGSYSLVTQQPLGGKAQFGGQRFGEMEVWALEAYGAAYTLQEMLTVKSDDVNGRTKMYKNIVDGDHRMEAGMPESFNVLIKEIRSLG	failed
MYLTCRFEESKSAEKAVVALEESTSGEPKTPTESHEKLRKVRSDQGSSTTSSNQENIGSSSVSFRNQVLQSTVTNQKQDSPIPVESNREKAASKEVEAGSQSTNEGIAGQSSSTEKPKEEESAKQRWSRSQREAALMKFRLKRKDRCFDKKHLKQIQDQTDSMEMYKNGLQVRYQSRKKLAEQRPRVKGQFVRTVNSDASTKS	failed
MKLIKFVRNVVLFILTAIFLAFMLLVSYCMPHYSAAVISGVEVKRMNENENTPNNKEVKTLARDVYFVQTYDPKDQKSVTVYRNEDTRFSFPFYFKFNSADISALAQSLINQQVEVKYYGWRINLFNMFPNVIFLKPLKESTDISKPIFSWILYALLLMGFFISARSVCTLFKSKAH	failed
MKRYRTLLFDVDDTILDFQAAEALALRLLFEDQNIPLTNDMKAQYKTINQGLWRAFEEGKMTRDEVVNTRFSALLKEYGYEADGALLEQKYRRFLEEGHQLIDGAFDLISNLQQQFDLYIVTNGVSHTQYKRLRDSGLFPFFKDIFVSEDTGFQKPMKEYFNYVFERIPQFSAEHTLIIGDSLTADIKGGQLAGLDTCWMNPDMKPNVPEIIPTYEIRKLEELYHILN	not failed
MGTEATEQVSWGHYSGDEEDAYSAEPLPELCYKADVQAFSRAFQPSVSLTVAALGLAGNGLVLATHLAARRAARSPTSAHLLQLALADLLLALTLPFAAAGALQGWSLGSATCRTISGLYSASFHAGFLFLACISADRYVAIARALPAGPRPSTPGRAHLVSVIVWLLSLLLALPALLFSQDGQREGQRRCRLIFPEGLTQTVKGASAVAQVALGFALPLGVMVACYALLGRTLLAARGPERRRALRVVVALVAAFVVLQLPYSLALLLDTADLLAARERSCPASKRKDVALLVTSGLALARCGLNPVLYAFLGLRFRQDLRRLLRGGSCPSGPQPRRGCPRRPRLSSCSAPTETHSLSWDN	failed
MLPSPSSSSAPTKRIDPSELKRVFQMFDKNGDGRITKEELNDSLENLGIYIPDKDLTQMIHKIDANGDGCVDIDEFESLYSSIVDEHHNDGETEEEDMKDAFNVFDQDGDGFITVEELKSVMASLGLKQGKTLDGCKKMIMQVDADGDGRVNYKEFLQMMKGGGFSSSN	not failed
MPMTLDLQPGQRLARGVARHLRAHGFVSVEEFVPARGLRVDVMGLGPKGEIWVIECKSSRADFQADAKWQGYLEWCDRYFWAVDMEFPAELLPAESGLLIADAYDAEIVRMAPEQKLAPARRKVLIQKFATHAARRLQALRDPEGHGIFE	not failed
MEGEAQKKFTTGDKAYVKKDSMMYEIVVGCNRSCPCRDSQCIAQIQQVAEPTVANGTARYFVHYVSWNESFDEWVEELDLYPFNAESQQLMNDLRQQALTEKDTENSVPEQENQLKRKRPSKETEKREEPLDAYSLFNIPGSLKRQLMDEWETVTREKMTLTLPREYTVRRILEIWATTKSKQSDSNKDDSTVQEFVNGIFELFNISLGKMLLYRYERPQHNQIFHENESPPEPIDVYGAEHLLRLFVKLPGLVRHLQVPEEAVLNIAQKSYEMLRFLQKNSRKFFSPQYEPLKSQDDSVQGENEDDMDEE	not failed
MKETPRASGATNFILVGLGVIIALLGLLLAAGGVKLAGLGGSWYFLIGGLAMAIAGVLIARRKKAGAWLYAVFLVGTAIWALIDAGLVFWPLFSRLFMFGAIGMVVALVYPLLARANGASAGRGAYGVAGVMAVVLVVAVGNMFVAHPSVAPTGKGPGMTPVETGKEQKDWAHYGNTEGGSRFAALDQINRDNVNKLKVAWTYQTGDVAISDGNGAEDQLTPLQIGSKVFICTPHNNLIALDADTGKELWKNEINAQSKVWQRCRGMAYFDATAAIAQPTQPNSSPITGVSVAAGANCQRRLLTNTIDGRLIAVDADTGEFCQGFGNNGQVDLKAGLGDVPDSYYQLSSAPLMAGTTVVVGGRVADNVQTDMPGGVIRGFDVITGEMRWAFDPGNPEDRQAPQGDKTYVRSTPNSWAPMSYDPAMNTVFLPMGSSSTDIYGVERSKLDHTYGASVLALDATTGNQKWVFQTVHNDLWDFDLPMQPSLIDFTKDDGQSVPAVVIGTKAGQIYVLDRATGKPLTQVDEVPVKPSNIPNEPYSPTQPKSVGMPQIGAQTLTESDMWGATPYDQLLCRIDFKKMRYDGLYTAPGTDLSLSFPGSLGGMNWGSISTDPVHGFIFVNDMRLGLWIQMIPSQNKGGAASGGEALNTGMGAVPLKGTPYAVNKNRFLSVAGIPCQAPPFGTLTAIDMKTRQVAWQVPVGTVEDTGPLGIRMHLPIKIGLPTLGGTLSTQGGLVFIAGTQDFYLRAYDSSNGNEIWKARLPVGSQGGPMTYVSPKTGKQYVVITAGGARQSTDRGDYVISYALP	failed
MVDIHSHIIPGIDDGSNSLETTLKMMEIANEAGLTKMVATSHYFRGRFENSISAITSEAEKLNSIFKKKAVDIEVIPGQEVFIDNHTLEAHKNGIIGCIRDTNYMLVEFDMMSLLENAADILYEIQIRGIKPIIAHPERYTYIQRDLYKINDLIDENIYFQVNAGSIEGLFGKTVQKTAIKLIEEGLVSFIASDAHSAGKRCPGYEGALKLVAKIDSVLPGKFVKNADLLIENQEIKARSQKLKRKKGFFTFFK	failed
MDFVFDIDGTLCFDGMSLSKEIQGILERAQIDYGHRVTFATARSYRDTIGILGDKLSLSKIIGLNGATLHENGHLVDSYYLQSDFFSTIISYCHRHQIPYFVDEVFNYATYQASKIPFIAYVDPQKRGELLEVSKIEKPIKMVLYFGDQLGRADQMLAELNRFGLSSHFFHEFEKCLYINPIAVDKGKATKKLFGNRFIAFGNDKNDISMFDAAHYSVQVGDFDELTPYANLRVSRESVHEGITTLFEKYKGIT	failed
MSLSAKSSLKEVAELAGVGYATASRALSGKGYVSPQTREKVQAAAKELNYVPNQLAKALREHRSALVGVIVPDLSNEYYSESLQTIQQDLKAAGYQMLVAEANSVQAQDVVMESLISIQAAGIIHVPVVGSIAPEGIPMVQLTRGELGPGFPRVLCDDEAGFFQLTESVLGGSGMNIAALVGEESLSTTQERMRGISHAASIYGAEVTFHFGHYSVESGEEMAQVVFNNGLPDALIVASPRLMAGVMRAFTRLNVRVPHDVVIGGYDDPEWYSFVGAGITTFVPPHEEMGKEAVRLLVDLIENPELPTGDVVLQGQVILRGSSTHEGHHHHHH	not failed
MNKFENFYKVPISYKNRKNEIYKYDNLEYNKMKYGMPEYYRCPYYMHENRNLYNTESCYTPNINVGRNSFYGKTLDPNDKICEENDSVYNILEEDHKEESFKKIECMNKEDDRKKIYNKVEKNDDENIDNKKHNYCEKYEEVYPKDRSSIKIIYNDVDQQIDHNLYDDENEIVCDNEIKKRKKRDRKVFMGKYFFSDIINTIIYPCTNKSLQKYQYGSVENMDYSLYNDIQKGQKIQKVDKIKNKKAPQIIVKF	failed
VGRLDDLKRSPLFQNVPEDAMREALKVVTERNFQPDELVVEQDAEGEALHLVTTGVVRVSRVSLGGRERVLGDIYAPGVVGETAVLAHQERSASVRALTPVRTLMLHREHFELILRRHPRVLWNLAEMLARRVTFLNDELIAFGQNTEAALTHVFANLYRQRLAAGVPQPEVLPLGTQDIMARTSSSRETVSRVLKRLEAHNILEVSPRSVTLLDLAALEALSFEGAETD	not failed
MGNTTSDRVSGERHGAKAARSEGAGGHAPGKEHKIMVGSTDDPSVFSLPDSKLPGDKEFVSWQQDLEDSVKPTQQARPTVIRWSEGGKEVFISGSFNNWSTKIPLIKSHNDFVAILDLPEGEHQYKFFVDGQWVHDPSEPVVTSQLGTINNLIHVKKSDFEVFDALKLDSMESSETSCRDLSSSPPGPYGQEMYAFRSEERFKSPPILPPHLLQVILNKDTNISCDPALLPEPNHVMLNHLYALSIKDSVMVLSATHRYKKKYVTTLLYKPI	not failed
MNSEQADILDLLSGHTDDTTIERLAFECLLTNMTDDRVVSLMNILGWQGDFNCFAIGGVPSASLASTSLAIRKAVRDLGGEHVVIGTYGTFLLALACQMGAVTPEVTCTAVMPAFSEDEPLYLSPVRSGVAGASHALRETMFSLQAAPALSTPSRPLRADELLPERALLGDDYAREELYRNVYQVLRGENPDDPTYLTVSTFLKYGSSLENTAKELNVHPNTVRYRLKRAAETTGWDATDPRDAYVLTTALAIGRMRDR	not failed
MMAKLVVCIIDGMADPPPPAGGVTPLAAAHTPHCDTLARHSVAGLCHVIQPEAVPGSEAGLSALLCCEAAASIARGPVEALAQGDPVAPHETVWRLNLVSLGPRGNYYNPAPLLDAATETAARKMLDRALGTQGYSLLGGKGFRHLCAGTEPPVLRDGPQDVCGMTPDTGQADLNSYCPRLARAMTEANVLFRRSRMDLAVWPWGAGTMPDLPGFAETTGQTGALAGGVPLARGLALALGMTAPSIAGATGGIDTDLGAKTRAAIALAAGHDVVYLHVEAPDLHAHALDRVAKRRAIERIDAEVVGPLHMALPDATLLITCDHATDCATGRHMAIPVPFILHKPDGPQDGIATFSEAASARTGIRIDSAATLVRLALADLEHHHHHH	not failed
MSNELLMSSAEYPAHQENKRFRGASSQNITVILPACNNEVSIGSLILLTRLYADNVIVVDDGSTDRTVEISRKAGAHVIVNEACKGKVGSLRTGFTAAADLGADIIVTMDPDGQHNPAEIPRIVAPIIDGTAEMVNGSRYLNYPGKNSSVYSRTGQTMQDISANMNFNLKITDTQSGFRAYAASTKSIFRFSGKKTAIENEMLADAGRSGIRIAEVEIGACTSVGASIRDPVKYTLGALRTMAEDIEANKPLYFYSVPGFALATCGFFMGFKFMADYFFGIASLNFGHTFLMVFLALAGAYMTLRGIIAHSMAGAARQTDST	failed
DVRVKFEHRGEKRILQFPRPVKLEDLRSKAKIAFGQSMDLHYTNNELVIPLTTQDDLDKAVELLDRSIHMKSLKILLVINGSTQATNLEP	not failed
